Tests used:
Assay in all cases: ELISA, antigen coated at 1 ug/ml, binder titrated from 10 ug/ml, OD450
CD3-CD70 BsM_M = target: T1, CD3-CD70 BsM_M
T1 construct: N-glycosylated; also called anti-CD3/CD70 bispecific molecule of monomeric form

CD3-CD70 BsM_D = target: T2, CD3-CD70 BsM_D
T2 construct: glycosylated, disulfide-linked dimer; also called anti-CD3/CD70 bispecific molecule of dimeric form

CD3-OX40L BsM_D = target: T3, CD3-OX40L BsM_D
T3 construct: glycosylated, disulfide-linked dimer; also called anti-CD3/OX40L bispecific molecule of dimeric form

CD3-OX40L BsM_M = target: T4, CD3-OX40L BsM_M
T4 construct: N-glycosylated; also called anti-CD3/OX40L bispecific molecule of monomeric form

CD3-B7RP-1 BsM_M = target: T5, CD3-B7RP-1 BsM_M
T5 construct: N-glycosylated on the B7RP-1 part; also called anti-CD3/B7RP-1 bispecific molecule of monomeric form

CD3-B7RP-1 BsM_D = target: T6, CD3-B7RP-1 BsM_D
T6 construct: glycosylated, disulfide-linked dimer; also called anti-CD3/B7RP-1 bispecific molecule of dimeric form

CD3-GITRL BsM_D = target: T7, CD3-GITRL BsM_D
T7 construct: glycosylated, disulfide-linked dimer; also called anti-CD3/GITRL bispecific molecule of dimeric form

CD3-GITRL BsM_M = target: T8, CD3-GITRL BsM_M
T8 construct: glycosylated; also called anti-CD3/GITRL bispecific molecule of monomeric form

B1: human CD27-hFc recombinant protein (Fc fusion)
chain: TPAPKSCPERHYWAQGKLCCQMCEPGTFLVKDCDQHRKAAQCDPCIPGVSFSPDHHTRPHCESCRHCNSGLLVRNCTITANAECACRNGWQCRDKECTECDPLPNPSLTARSSQALSPHPQPTHLPYVSEMLEARTAGHMQTLADFRQLPARTLSTHWPPQRSLCSSDFIR
notes: Purchased from Novoprotein; also called CD27-hFc recombinant antigen; not shown: human Fc (hFc) of the purchased fusion
- binding result (CD3-CD70 BsM_M): binds
- binding result (CD3-CD70 BsM_D): binds

B2: human OX40-hFc recombinant protein (Fc fusion)
chain: LHCVGDTYPSNDRCCHECRPGNGMVSRCSRSQNTVCRPCGPGFYNDVVSSKPCKPCTWCNLRSGSERKQLCTATQDTVCRCRAGTQPLDSYKPGVDCAPCPPGHFSPGDNQACKPWTNCTLAGKHTLQPASNSSDAICEDRDPPATQPQETQGPPARPITVQPTEAWPRTSQGPSTRPVEVPGGRA
notes: Purchased from Novoprotein; also called OX40-hFc recombinant antigen; not shown: human Fc (hFc) of the purchased fusion
- binding result (CD3-OX40L BsM_D): binds
- binding result (CD3-OX40L BsM_M): binds

B3: human ICOS-hFc recombinant protein (Fc fusion)
chain: EINGSANYEMFIFHNGGVQILCKYPDIVQQFKMQLLKGGQILCDLTKTKGSGNTVSIKSLKFCHSQLSNNSVSFFLYNLDHSHANYYFCNLSIFDPPPFKVTLTGGYLHIYESQLCCQLK
notes: Purchased from Novoprotein; also called ICOS-hFc recombinant antigen; not shown: human Fc (hFc) of the purchased fusion
- binding result (CD3-B7RP-1 BsM_M): binds
- binding result (CD3-B7RP-1 BsM_D): binds

B4: human GITR-hFc recombinant protein (Fc fusion)
chain: QRPTGGPGCGPGRLLLGTGTDARCCRVHTTRCCRDYPGEECCSEWDCMCVQPEFHCGDPCCTTCRHHPCPPGQGVQSQGKFSFGFQCIDCASGTFSGGHEGHCKPWTDCTQFGFLTVFPGNKTHNAVCVPGSPPAE
notes: Purchased from Novoprotein; also called GITR-hFc recombinant antigen; not shown: human Fc (hFc) of the purchased fusion
- binding result (CD3-GITRL BsM_D): binds
- binding result (CD3-GITRL BsM_M): binds
